We go through four substances from PMC9932110.

Experiment [1] concerns the target muskelin (rat) (UniProt Q99PV3). In words: ITC; ITC-200, 25 °C, 20 mM tricine pH 8.0, 150 or 200 mM NaCl, 1 mM TCEP; 50-150 μM in the syringe, 10 times lower in the cell; one-site model. For orientation: ITC needs no label: the signal is the heat of the interaction.
The target of experiment [2] is Armc8β (mouse). Described as above.
In experiment [3] the target is Wdr26 (mouse) (UniProt Q8C6G8). The experiment is described as above.
Chain of Wdr26 (mouse) (Q8C6G8 other isoform, or with tags, fused parts or gaps): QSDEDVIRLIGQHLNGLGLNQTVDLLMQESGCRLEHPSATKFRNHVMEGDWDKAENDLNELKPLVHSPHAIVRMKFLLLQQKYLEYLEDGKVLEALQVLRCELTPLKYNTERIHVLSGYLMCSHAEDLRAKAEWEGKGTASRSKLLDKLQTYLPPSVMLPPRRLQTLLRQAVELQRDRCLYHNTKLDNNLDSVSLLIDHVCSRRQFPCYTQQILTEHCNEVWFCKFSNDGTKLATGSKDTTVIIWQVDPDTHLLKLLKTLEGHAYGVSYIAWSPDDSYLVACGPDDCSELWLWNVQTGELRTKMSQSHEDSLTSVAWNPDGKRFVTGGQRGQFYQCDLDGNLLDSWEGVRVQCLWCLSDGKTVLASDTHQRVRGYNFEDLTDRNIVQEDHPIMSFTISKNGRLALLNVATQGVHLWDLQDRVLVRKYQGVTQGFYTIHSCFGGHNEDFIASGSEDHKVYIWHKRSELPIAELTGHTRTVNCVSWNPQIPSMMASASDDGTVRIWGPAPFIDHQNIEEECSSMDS
Experiment [4] deals with Twa1–Armc8β complex (mouse) (UniProt Q9D7M1). The experiment can be described thus: SEC-MALS; Tβ complex, dilution series; molar mass at the peak against peak concentration, one-site model; Tβ heterodimer to higher order oligomers. Background: Size exclusion chromatography separates by hydrodynamic size, large species first.
In experiment [5] the target is Armc8β (mouse). The experiment can be described thus: SEC-MALS; Armc8β alone, dilution series from two purifications; molar mass at the peak against peak concentration, one-site and two-site models; monomer to dimer and higher.
Experiment [6] deals with Armc8β (mouse). In words: native gel or EMSA; blue native PAGE of Armc8β. For orientation: In EMSA bound probe runs differently from free probe, usually more slowly.
Experiment [7] concerns the target Armc8β (mouse). In words: SEC-MALS; Twa1, Armc8β and their mixture at low concentrations.

Chain of Twa1 (Q9D7M1 whole entry): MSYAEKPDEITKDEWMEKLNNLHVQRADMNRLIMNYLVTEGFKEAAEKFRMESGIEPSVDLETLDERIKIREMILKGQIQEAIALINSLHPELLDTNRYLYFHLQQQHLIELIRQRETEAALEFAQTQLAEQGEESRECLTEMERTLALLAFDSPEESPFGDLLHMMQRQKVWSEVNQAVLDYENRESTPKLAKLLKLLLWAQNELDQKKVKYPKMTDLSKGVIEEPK
Chain of muskelin (rat) (Q99PV3 whole entry): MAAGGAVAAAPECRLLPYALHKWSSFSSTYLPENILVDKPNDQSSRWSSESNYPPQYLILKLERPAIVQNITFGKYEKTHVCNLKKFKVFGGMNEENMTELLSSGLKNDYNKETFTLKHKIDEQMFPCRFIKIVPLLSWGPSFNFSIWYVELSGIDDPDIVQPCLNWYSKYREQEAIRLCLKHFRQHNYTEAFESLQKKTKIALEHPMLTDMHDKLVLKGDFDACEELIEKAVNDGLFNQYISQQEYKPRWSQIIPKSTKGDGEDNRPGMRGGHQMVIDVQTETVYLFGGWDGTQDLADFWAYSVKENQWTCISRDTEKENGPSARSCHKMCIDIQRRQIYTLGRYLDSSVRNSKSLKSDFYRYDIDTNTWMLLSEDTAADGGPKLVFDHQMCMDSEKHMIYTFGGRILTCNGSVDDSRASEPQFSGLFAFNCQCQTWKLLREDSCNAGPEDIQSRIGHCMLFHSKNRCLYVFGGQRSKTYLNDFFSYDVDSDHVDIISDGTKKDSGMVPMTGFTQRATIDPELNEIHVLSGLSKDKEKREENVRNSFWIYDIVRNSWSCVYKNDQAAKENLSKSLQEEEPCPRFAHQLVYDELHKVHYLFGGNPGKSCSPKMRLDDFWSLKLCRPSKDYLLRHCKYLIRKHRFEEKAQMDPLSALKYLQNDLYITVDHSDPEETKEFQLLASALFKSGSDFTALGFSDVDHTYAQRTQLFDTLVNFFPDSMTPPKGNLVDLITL

A word on the Kd: it is a measure of binding affinity in units of concentration. Read a low Kd as higher affinity. In general, stoichiometry N refers to a count of units in the complex or per binding partner. For “RanBP9–Twa1 complex (from UniProt P69566 1-653; Q9D7M1 1-228)”, the figures for the Kd in experiment [1], in experiment [2] and in experiment [3] were 1.7 nM, 8.1 nM and 3.4 nM, respectively. Also, the stoichiometry N was 1 in experiment [1] and 0.95 in experiment [3].

In experiment [4], “Twa1–Armc8β complex (from UniProt Q9D7M1 1-228)” displayed a Kd of 6200 nM and a stoichiometry N of 8.2.

Consider Armc8β (natural protein), for which, in experiment [5], the KD high (two-site binding model) was found to be 1800 nM, the KD low (two-site binding model) was more than 40000 nM, the Kd came out at 5100 nM and the stoichiometry N lay within 1 to 2. Also, the stoichiometry N in experiment [6] was found to be 3.

As to “Twa1 (from UniProt Q9D7M1 1-228) (natural protein)”, the Kd in experiment [2] turned out to be 34.4 nM. In addition, the stoichiometry N in experiment [7] is 1.
